From US12617856B2, “Protease-cleavable substrates and methods of use thereof” (CytomX Therapeutics, Inc., priority 2022, dated 2026)
Starred links: 1 amine or outer side, 2 acyl side, 3 side chain; linkers in the order of their positions; H or OH if unused. No end group written: not given here. *: point of attachment. K(DNP) = O=C([C@H](CCCCNc1ccc([N+](=O)[O-])cc1[N+](=O)[O-])N[*:1])[*:2]; Mca = COc1ccc2c(CC(=O)*)cc(=O)oc2c1

Legend:
Type in all cases: biochemical
MMP2 = target: T1, MMP2 (Homo sapiens, UniProt P08253); test: Peptide probe cleavage assay (internally quenched MCA/DNP probes) with MMP2; settings: 20 μM internally quenched peptide probe, 20 nM protease, 37° C.
T1 sequence (P08253 110-660): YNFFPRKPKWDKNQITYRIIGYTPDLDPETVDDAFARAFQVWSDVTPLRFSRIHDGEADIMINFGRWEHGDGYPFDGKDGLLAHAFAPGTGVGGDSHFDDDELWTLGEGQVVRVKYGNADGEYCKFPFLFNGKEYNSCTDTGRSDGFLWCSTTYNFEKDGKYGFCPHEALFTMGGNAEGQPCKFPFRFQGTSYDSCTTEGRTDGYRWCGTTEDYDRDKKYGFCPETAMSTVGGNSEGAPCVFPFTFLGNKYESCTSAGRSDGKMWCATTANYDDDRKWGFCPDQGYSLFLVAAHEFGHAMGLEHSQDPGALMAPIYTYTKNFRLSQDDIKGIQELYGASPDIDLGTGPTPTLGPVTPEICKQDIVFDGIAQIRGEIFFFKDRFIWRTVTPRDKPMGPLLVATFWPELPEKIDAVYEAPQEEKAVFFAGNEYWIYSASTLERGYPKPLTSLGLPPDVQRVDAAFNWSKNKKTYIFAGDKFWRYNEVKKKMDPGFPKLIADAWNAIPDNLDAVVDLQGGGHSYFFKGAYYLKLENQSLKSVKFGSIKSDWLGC

MMP9 = MMP9 (Homo sapiens, UniProt P14780); test: Peptide probe cleavage assay (internally quenched MCA/DNP probes) with MMP9; settings: 20 μM internally quenched peptide probe, 20 nM protease, 37° C.
MMP9, sequence (P14780 94-707): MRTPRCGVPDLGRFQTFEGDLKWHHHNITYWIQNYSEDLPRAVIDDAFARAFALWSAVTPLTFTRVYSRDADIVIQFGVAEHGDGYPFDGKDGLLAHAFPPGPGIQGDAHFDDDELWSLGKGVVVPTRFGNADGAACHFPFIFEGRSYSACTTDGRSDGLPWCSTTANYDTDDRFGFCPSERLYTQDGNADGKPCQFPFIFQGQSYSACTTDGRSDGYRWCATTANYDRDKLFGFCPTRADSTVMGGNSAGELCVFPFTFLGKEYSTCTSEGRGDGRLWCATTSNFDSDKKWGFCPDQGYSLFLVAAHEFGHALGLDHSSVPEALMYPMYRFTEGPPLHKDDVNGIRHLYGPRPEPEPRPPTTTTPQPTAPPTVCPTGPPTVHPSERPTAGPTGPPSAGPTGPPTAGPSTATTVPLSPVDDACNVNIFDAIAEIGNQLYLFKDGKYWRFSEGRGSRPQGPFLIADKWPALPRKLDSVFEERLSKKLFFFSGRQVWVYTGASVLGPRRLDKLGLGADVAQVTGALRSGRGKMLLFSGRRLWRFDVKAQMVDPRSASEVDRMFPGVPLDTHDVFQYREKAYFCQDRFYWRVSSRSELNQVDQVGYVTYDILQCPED

[1] = target: urokinase-type plasminogen activator (uPA) (Homo sapiens, UniProt P00749); test: Peptide probe cleavage assay (internally quenched MCA/DNP probes) with uPA; settings: 20 μM internally quenched peptide probe, 20 nM protease, 37° C.; — = below limit of quantification
[2] = target: T2, membrane type serine protease 1 (MT-SP1) (Homo sapiens, UniProt Q9Y5Y6); test: Peptide probe cleavage assay (internally quenched MCA/DNP probes) with MT-SP1; settings: 20 μM internally quenched peptide probe, 20 nM protease, 37° C.
T2 sequence (Q9Y5Y6 1-855): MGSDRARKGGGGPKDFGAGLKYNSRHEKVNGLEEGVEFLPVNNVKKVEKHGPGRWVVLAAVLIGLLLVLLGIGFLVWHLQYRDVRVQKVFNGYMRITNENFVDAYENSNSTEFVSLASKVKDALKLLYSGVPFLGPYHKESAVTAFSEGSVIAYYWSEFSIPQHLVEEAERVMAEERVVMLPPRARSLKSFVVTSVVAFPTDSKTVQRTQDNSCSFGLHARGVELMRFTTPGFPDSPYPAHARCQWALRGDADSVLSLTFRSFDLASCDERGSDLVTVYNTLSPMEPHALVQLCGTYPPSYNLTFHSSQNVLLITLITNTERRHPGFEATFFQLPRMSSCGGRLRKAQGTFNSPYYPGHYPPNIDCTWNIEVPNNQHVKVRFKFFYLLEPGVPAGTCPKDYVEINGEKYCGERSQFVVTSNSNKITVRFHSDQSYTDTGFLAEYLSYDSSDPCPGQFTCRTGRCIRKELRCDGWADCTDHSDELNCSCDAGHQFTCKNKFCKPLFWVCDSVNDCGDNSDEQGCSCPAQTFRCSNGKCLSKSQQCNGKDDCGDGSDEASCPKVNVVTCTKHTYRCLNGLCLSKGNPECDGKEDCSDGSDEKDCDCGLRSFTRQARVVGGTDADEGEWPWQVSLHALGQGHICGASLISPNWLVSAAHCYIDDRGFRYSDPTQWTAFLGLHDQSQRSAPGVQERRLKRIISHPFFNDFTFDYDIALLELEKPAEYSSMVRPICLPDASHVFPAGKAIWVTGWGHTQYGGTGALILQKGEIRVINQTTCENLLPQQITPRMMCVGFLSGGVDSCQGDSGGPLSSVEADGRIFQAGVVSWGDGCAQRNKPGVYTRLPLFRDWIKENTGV

MMP14 = MMP14 (Homo sapiens, UniProt P50281); test: Peptide probe cleavage assay (internally quenched MCA/DNP probes) with MMP14; settings: 20 μM internally quenched peptide probe, 20 nM protease, 37° C.; — = below limit of quantification

Row | Substance | Probe Cleavage (pM/s) MMP2 (MMP2) | Probe Cleavage (pM/s) MMP9 (MMP9) | Probe Cleavage (pM/s) uPA [1] | Probe Cleavage (pM/s) MT-SP1 [2] | Probe Cleavage (pM/s) MMP14 (MMP14)
1 | (MCA)-Gly-Ser-Trp-Gly-Leu-Ser-Gly-Arg-Ser-Gly-Lys (DNP)-D-Arg (Mca-GSWGLSGRSG-{K(DNP)-dR}; SMILES COc1ccc2c(CC(=O)NCC(=O)N[C@@H](CO)C(=O)N[C@@H](Cc3c[nH]c4ccccc34)C(=O)NCC(=O)N[C@@H](CC(C)C)C(=O)N[C@@H](CO)C(=O)NCC(=O)N[C@@H](CCCNC(=N)N)C(=O)N[C@@H](CO)C(=O)NCC(=O)N[C@@H](CCCCNc3ccc([N+](=O)[O-])cc3[N+](=O)[O-])C(=O)N[C@H](CCCNC(=N)N)C(=O)O)cc(=O)oc2c1) [CM WGLSGRS] | 66.4 pM/s | 581 pM/s | – | – | –
2 | (MCA)-Ser-Pro-Trp-Gly-Leu-Ser-Gly-Gly-Gly-Ser-Lys (DNP)-D-Arg (Mca-SPWGLSGGGS-{K(DNP)-dR}; SMILES COc1ccc2c(CC(=O)N[C@@H](CO)C(=O)N3CCC[C@H]3C(=O)N[C@@H](Cc3c[nH]c4ccccc34)C(=O)NCC(=O)N[C@@H](CC(C)C)C(=O)N[C@@H](CO)C(=O)NCC(=O)NCC(=O)NCC(=O)N[C@@H](CO)C(=O)N[C@@H](CCCCNc3ccc([N+](=O)[O-])cc3[N+](=O)[O-])C(=O)N[C@H](CCCNC(=N)N)C(=O)O)cc(=O)oc2c1) [CM PWGLSG] | – | – | 12.9 pM/s | 5.10 pM/s | –
3 | CM AWGLSGRS: internally quenched MCA/DNP probe SEQ ID NO: 699 with one residue replaced by Ala, CM AWGLSGRS (SEQ ID NO: 686) (not fully specified (N-terminus, C-terminus); also: MCA/DNP internal quench labels, places not given here) | 816 pM/s | – | – | – | 224 pM/s
4 | CM PWGLAGRS: internally quenched MCA/DNP probe SEQ ID NO: 699 with one residue replaced by Ala, CM PWGLAGRS (SEQ ID NO: 690) (not fully specified (N-terminus, C-terminus); also: MCA/DNP internal quench labels, places not given here) | – | – | 126 pM/s | – | –
5 | CM PWGLRS: internally quenched MCA/DNP peptide probe of design SEQ ID NO: 698, CM PWGLRS (SEQ ID NO: 48) (also: MCA/DNP internal quench labels, places not given here) | 3800 pM/s | 3830 pM/s | – | 1230 pM/s | 4380 pM/s
6 | CM PWGLSGAS: internally quenched MCA/DNP probe SEQ ID NO: 699 with one residue replaced by Ala, CM PWGLSGAS (SEQ ID NO: 692) (not fully specified (N-terminus, C-terminus); also: MCA/DNP internal quench labels, places not given here) | – | – | 1.80 pM/s | 13.0 pM/s | –
7 | CM PWGLSGRA: internally quenched MCA/DNP probe SEQ ID NO: 699 with one residue replaced by Ala, CM PWGLSGRA (SEQ ID NO: 693) (not fully specified (N-terminus, C-terminus); also: MCA/DNP internal quench labels, places not given here) | – | – | 380 pM/s | – | –
8 | CM RSPWGL: internally quenched MCA/DNP peptide probe of design SEQ ID NO: 698, CM RSPWGL (SEQ ID NO: 90) (also: MCA/DNP internal quench labels, places not given here) | 11700 pM/s | 25500 pM/s | 3210 pM/s | 2390 pM/s | 9580 pM/s

Results, then the substance that gave them:

Row | Probe Cleavage (pM/s) MMP2 (MMP2) | Probe Cleavage (pM/s) MMP9 (MMP9) | Probe Cleavage (pM/s) uPA [1] | Probe Cleavage (pM/s) MT-SP1 [2] | Probe Cleavage (pM/s) MMP14 (MMP14) | Substance
9 | – | – | 48.3 pM/s | – | – | (MCA)-Ser-Pro-Trp-Gly-Leu-Ser-Gly-Arg-Gly-Ser-Lys (DNP)-D-Arg (Mca-SPWGLSGRGS-{K(DNP)-dR}; SMILES COc1ccc2c(CC(=O)N[C@@H](CO)C(=O)N3CCC[C@H]3C(=O)N[C@@H](Cc3c[nH]c4ccccc34)C(=O)NCC(=O)N[C@@H](CC(C)C)C(=O)N[C@@H](CO)C(=O)NCC(=O)N[C@@H](CCCNC(=N)N)C(=O)NCC(=O)N[C@@H](CO)C(=O)N[C@@H](CCCCNc3ccc([N+](=O)[O-])cc3[N+](=O)[O-])C(=O)N[C@H](CCCNC(=N)N)C(=O)O)cc(=O)oc2c1) [CM PWGLSGR]
10 | – | – | – | – | 190 pM/s | CM LSGRSPAGL: internally quenched MCA/DNP probe of design SEQ ID NO: 703, X1 Arg, X2 Ala, CM LSGRSPAGL (SEQ ID NO: 694) (also: MCA/DNP internal quench labels, places not given here)
11 | 202 pM/s | 456 pM/s | – | – | 29.7 pM/s | CM PWGASGRS: internally quenched MCA/DNP probe SEQ ID NO: 699 with one residue replaced by Ala, CM PWGASGRS (SEQ ID NO: 689) (not fully specified (N-terminus, C-terminus); also: MCA/DNP internal quench labels, places not given here)
